Experimental data reported in PMC8924070 (Frontiers in Immunology, 2022).

Assays:
Conditions in all cases: both partners purified
[1] = molecular target: T1, PD-1-ECD (PD-1-E. coli), extracellular domain of programmed cell death protein 1 expressed in E. coli (Homo sapiens, UniProt Q15116); assay: SPR; BIAcore8000, CM5 chip, room temperature; cemiplimab-scFv (695 RU) or camrelizumab-scFv (569 RU) immobilised; PD-1 forms flowed over (PD-1-WT 0-100 nM, PD-1-N58A 50-800 nM, PD-1-E. coli 0-8 μM); 1:1 Langmuir model
T1 construct: PD-1 (programmed cell death protein 1), extracellular domain, UniProt Q15116, residues L25-R147; no glycan, no post-translational modification; Cloned into pET-21a(+); also called non-glycosylated PD-1

[2] = molecular target: T2, PD-1-E. coli, extracellular domain of PD-1 (residues L25-R147) expressed in E. coli (Homo sapiens, UniProt Q15116); assay: SPR; cemiplimab-scFv (695 RU) or camrelizumab-scFv (569 RU) immobilised on a CM5 chip, PD-1 forms flowed over (PD-1-WT 0-100 nM, PD-1-N58A 50-800 nM, PD-1-E. coli 0-8 uM); BIAcore 8000, room temperature; 1:1 Langmuir binding model; mean of three repeats
T2 construct: programmed cell death protein 1 (PD-1), extracellular domain, residues L25-R147 of UniProt Q15116; no glycans (E. coli); Cloned into pET-21a(+); also called PD-1-ECD; non-glycosylated PD-1

[3] = molecular target: T3, PD-1-N58A, extracellular domain of PD-1 (residues L25-R147) with N58A, expressed in 293F cells (Homo sapiens, UniProt Q15116, N58A, glycosylated in 293F cells, specifically deficient in N58 glycosylation); assay: as above
T3 construct: programmed cell death protein 1 (PD-1), extracellular domain, residues L25-R147 of UniProt Q15116, N58A; also called N58A-mutated PD-1; N58 glycosylation-deficient PD-1; not shown: His6, C-terminal, kept
T3 sequence (Q15116 25-147 N58A): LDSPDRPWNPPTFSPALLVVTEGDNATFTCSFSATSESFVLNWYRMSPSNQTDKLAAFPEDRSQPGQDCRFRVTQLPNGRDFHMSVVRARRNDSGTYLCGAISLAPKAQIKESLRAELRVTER

T1 sequence (Q15116 25-147): as the sequence (Q15116 25-147 N58A) above, with A34N counted along it
T2 sequence (Q15116 25-147): as the sequence (Q15116 25-147 N58A) above, with A34N counted along it

Binder | Kd [1] | koff [2] | koff [3]
camrelizumab-scFv (scFv, V domains shown, scFv of camrelizumab; Named only in the SPR methods) VH: EVQLVESGGGLVQPGGSLRLSCAASGFTFSSYMMSWVRQAPGKGLEWVATISGGGANTYYPDSVKGRFTISRDNAKNSLYLQMNSLRAEDTAVYYCARQLYYFDYWGQGTTVTVSS VL: DIQMTQSPSSLSASVGDRVTITCLASQTIGTWLTWYQQKPGKAPKLLIYTATSLADGVPSRFSGSGSGTDFTLTISSLQPEDFATYYCQQVYSIPWTFGGGTKVEIK | 2.63 µM | – | –
camrelizumab-scFv (scFv, V domains shown, scFv of camrelizumab) VH: EVQLVESGGGLVQPGGSLRLSCAASGFTFSSYMMSWVRQAPGKGLEWVATISGGGANTYYPDSVKGRFTISRDNAKNSLYLQMNSLRAEDTAVYYCARQLYYFDYWGQGTTVTVSS VL: DIQMTQSPSSLSASVGDRVTITCLASQTIGTWLTWYQQKPGKAPKLLIYTATSLADGVPSRFSGSGSGTDFTLTISSLQPEDFATYYCQQVYSIPWTFGGGTKVEIK | – | 0.308 s⁻¹ | 0.171 s⁻¹
cemiplimab-scFv (single-chain variable fragment of cemiplimab, VL-(GGGGS)4-VH) (scFv, V domains shown, VL of cemiplimab; linker, printed as GGGGS (4); VH of cemiplimab; Cloned into pET-21a(+); Used in the crystal and, by the SPR methods, immobilised on the CM5 chip; also called REGN2810; Libtayo) VH: EVQLLESGGVLVQPGGSLRLSCAASGFTFSNFGMTWVRQAPGKGLEWVSGISGGGRDTYFADSVKGRFTISRDNSKNTLYLQMNSLKGEDTAVYYCVKWGNIYFDYWGQGTLVTVSS VL: DIQMTQSPSSLSASVGDSITITCRASLSINTFLNWYQQKPGKAPNLLIYAASSLHGGVPSRFSGSGSGTDFTLTIRTLQPEDFATYYCQQSSNTPFTFGPGTVVDFR | 0.691 µM | – | –
cemiplimab-scFv, single-chain variable fragment of cemiplimab (VL-(GGGGS)4-VH) (scFv, V domains shown, VL of cemiplimab; structure of the cemiplimab-scFv/PD-1 complex deposited as PDB 7WVM; linker, printed as GGGGS (4); VH of cemiplimab; Cloned into pET-21a(+); also called REGN2810; Libtayo) VH: EVQLLESGGVLVQPGGSLRLSCAASGFTFSNFGMTWVRQAPGKGLEWVSGISGGGRDTYFADSVKGRFTISRDNSKNTLYLQMNSLKGEDTAVYYCVKWGNIYFDYWGQGTLVTVSS VL: DIQMTQSPSSLSASVGDSITITCRASLSINTFLNWYQQKPGKAPNLLIYAASSLHGGVPSRFSGSGSGTDFTLTIRTLQPEDFATYYCQQSSNTPFTFGPGTVVDFR | – | 0.047 s⁻¹ | 0.0274 s⁻¹
